Laboratory results: patent US20160053277A1, “Compositions Having Dicamba Decarboxylase Activity and Methods of Use” (PIONEER HI-BRED INTERNATIONAL, INC., priority 2013, published 2016)

B1: 82 (protein, listed as Rhodopseudomonas palustris)
chain: MAQNETPVIAIEEHYWDPEMVARFPAGENASPFSTLLTELGDVRLRAMDEAGIDVQVLSHGAPAAQKLPPDVAPELTRRVNDRLAEACARFPNRFAAFAALPTPAPEAAARELERCVRDLGFKGAMIHGLTNGLFIDDKRFWPIFEVAEKLDVPIYLHPSVPHADVTRYYYDDYAREFPTVIRPAWGFTVETATQAIRLILSRALESYPRLQIILGHLGETLPFLLWRINQALARPGQTPLDFRKQFCDHFHVTTSGFFSTPALICTMLELGIDRIMFAVDYPYVVNRDGTDWVQQLQISPDDKRKLVGGNARRLLKL
B2: 83 (protein, listed as Mycobacterium rhodesiae)
chain: MALIALEEHYAWSPVSAGNVVGSWLETHNVTAYQRLYDRGPLRLEQMDAAGIDFQILSLFDPGVQDDDDTARAVENARRANDDLAETVRAAPDRFGGFATLAPQDPDAAAAELERAVGELGLVGGLINGHTHGRYLDDPAYLGLFECAQRLGVPIYLHPTTPHPAVMDAWFAPYVKDGLHLASWGFAAETGTHALRLIYSGLFDTFPRLQMILGHLGEMLPYAAYRIDRYYGLGGGDDGGRLARLPSEYLRDNFHVTTSGNFNPVAFACALDVMGPDRLMFSVDYPMDDNVTGAEFLRNLEVDDDVRRKVAGENALQLFGDKIPRR
B3: 76 (protein, listed as Polymorphum gilvum)
chain: MAKKIDIFNHIWPEPFFKALIAHIGEMTDITMRSGAVPMMTNLDRRFEVMDMFGPDYMQVLSLASPPLEKLADPAKALELSRIGSDSLAELCQRYPERFPAFIGTAPLSNPAAVVGECRRAIEDLGAAGMQIFTNVAGKPLDLAEFEPFFEYMASAGKPVWLHPARGEAFADYQTEKRSEYEIWWTFGWPYETSAAMARLVFSRMFDKYPGLKVITHHAGGMVPFFEGRVGPGWDQMGARTTDRDLAAVRKALKRPHLDYFKEFYADTASFGSRKAIEHAIEFFGEDRVLFASDAPFDPEGGPMYIRETMRCIDSLDLTDAQRRKIYHGNATALLGLSL
B4: 74 (protein, listed as Ramlibacter tataouinensis)
chain: MATVIDVHTHMFTTKWLELLKKEGGQYNIQTRPDGQQEIFRGNTPVVIPQKGHFDWKLRIQHMDQAGIDVSVVSLTCPNVYWGGEDVSVRAAREANDNVAQAQTAYPDRIRWFASLPWEYMATVIDVHTHMFTTKWLELLKKEGGQYNIQTRPDGQQEIFRGNTPVVIPQKGHFDWKLRIQHMDQAGIDVSVVSLTCPNVYWGGEDVSVRAAREANDNVAQAQTAYPDRIRWFASLPWEYPQRAVEELERSCAQGAAGVMVLANVAGRSLTDPLFAPVWAEIDRRALPVLVHPTDPPGVDLMDMTKFDLSWSVGFMFDTTLAITRMIFEGFFDRYPNLRIIASHGGGTLPYLVGRFEKGDEVELASRRQMKRKPTDYLRHIHYDCITYNLGALQYLISVVGAGQVMFGTDWPHWVHDTRGAFANTAQLPQEQTRAVRGANAQRLFKL
B5: 85 (protein, listed as Maritimibacter alkaliphilus)
chain: MAADRKPGLVSVEEGFMIPEVVAELSRIAGGVPSMKSGPIAGPFMDDLLDIGKGRVARMDADGVAVQILALAAPGVQKFDPDTALALSRLTNDRLAEAIAAHPARFGGLAAAPPQAAREGAKELDRAITTLGLNGLIVNSHTNDLYLDDPSFWPLLEAAEALDVPVYLHPREPAAGIEGGLMAMTGFTVGWAYAVETGTHLLRMIAAGVFDRFPRLRIVLGHLGEMIPFMLDRIDNRYPFEMGVTGAKPLPRKPSDYFRDHVTVATSGMNFNAPMRAAIEVLGADKVMFAADYPMERQDEEVAKFAALDLTPDERKRIGEDNARRVFGL
B6: 72 (protein)
chain: MADCPCCVSPKRRRLLGSVSAIAAGMMAGLPALAAQPSTAAAGTGKPLSIDIHAHYYSESFLGLLGGEGKQFGGHFFRNDDSFTFQTPAGGLGPLPMKFIDVEQRVRDMDNSGVDVQAISLSVPMVYWADRTLNAKLARAWNTAASDVHRKHPTRFVVLATLPMLNANDAIDELEFAAGLPGVRGIYMGTNINNRDLDDPLFSPIFKRIEQLNLPIFLHPQQTVGGARLADFYLSNLLGNPFDTAIAASHLILGGVLDKYPALHFSLPHAGGALPILVGRIDAGWSMRSETKRVAQKPSSYLRRFSYDTISHSGPTLDFLIRNIGADRLVLGSDYCFDMGYEQPVRFLDRLALPDDQKRMVVGGNAARLLNL
modifications: Cupriavidus necator
B7: 75 (protein, listed as Ectocarpus siliculosus)
chain: MAKIDSYTHFACPAFMDHLEAESGHPMVFRGLFSSIPELSDIDLRIRYMDEHGIDVHCLVPLPWLECEPGLHADEGKALEACRIANDEMARVVARFPDRLIGVALIPTTTEQAMIQETTRAVKELGMAGVALFVGPTAKPPDMACFEGLYRTCEELGAVVWMHPCRPQSYADYDSYKGEGSKHQIWNTFGWIYDTSVAMVHIALAGVFRRYPGLKVVTHHHGAMVPFFTARFDTQRRNFQEVEGDDLLEDLRLFYCDTATFGESAANIQQAIDFFGKSQVLFGTDTPMDMGTRGMFTRTTIASVEALGAAPEDKESFYAGNVLDMLGERFAGISGARGAVAARPKGDSTRIAASL
B8: 86 (protein, listed as Sphingopyxis alaskensis)
chain: MALGASVASREASAQMAKAPMRKIATEEAFATPELAKAWLEIARSEPNSSLDIPTGILSIFDNPRPGSNQDRFRRQLLDVDAERIRDMDEAGVDMQLLSVTIPGVQIFEPARAGELAVTTNDHLAAAIARRPTRFAGLACFAPHDPVQATREMERAVNALGLKGFIVNSHTQDLYLDDPRFAPVLEAAQSLDCPIYLHPRAPSNGMAAPFRDYSMGGSIWGFGVEAGTHAVRMILSGVFDRYPRLRIVLGHMGEALPFWMWRLDHMAARRAKDGRMKPLSLAPSEYFKRNFAVTTSGFESPDVLDLVIKVAGIENIMWAIDYPYESSRDAVTFIEGADLTASQRASIFHRNAVRHFRLS
B9: 80 (protein, listed as Cordyceps militaris)
chain: MAAASTPVVVDIHTHMYPPSYIAMLEKRQTIPLVRTFPQADEPRLILLSSELAALDAALADPAAKLPGRPLSTHFASLAQKMHFMDTNGIRVSVISLANPWFDFLAPDEAPGIADAVNAEFSDMCAQHVGRLFFFAALPLSAPVDAVKASIERVKNLKYCRGIILGTSGLGKGLDDPHLLPVFEAVADAKLLVFLHPHYGLPNEVYGPRSEEYGHVLPLALGFPMETTIAVARMYMAGVFDHVRNLQMLLAHSGGTLPFLAGRIESCIVHDGHLVKTGKVPKDRRTIWTVLKEQIYLDAVIYSEVGLQAAIASSGADRLMFGTDHPFFPPIEEDVQGPWDSSRLNAQAVIKAVGEGSSDAAAVMGLNAVRVLSLKAE
B10: 78 (protein, listed as Marinobacter adhaerens)
chain: MALIDLHAHAPHPDYYDQHPHWGPAFELQSDGDIKLRVGHWVLSLGAPERKQALREAHARGETLDVQEYMAKWRDPEHRLASMDAAGQNAQVLSVPSHCYMYWAEPEFGVPFAKKVNDSLAEYCSAAPDRLMFWAHAPLNVPKEAAKEIRRACTELGAKGLVAGGSNFGGLEFDSPEMDPVWEALCDLDLPMFVHGYNQSVTWGEEANTDRYETTAIVGMNYDESKCFWYMINGGVFDRFPNLKVYITHGGGFVPYQLGRMAQTNPNLDTYHNKKPFLEYLKNFYFDVELHEVPMRQAMVEVIGADRVLYGSNFGGSDAVRHDLTDDLKLSQEDLDKIRWKNACDLLHLDPNKLGKVRG
B11: 84 (protein, listed as Mycobacterium rhodesiae)
chain: MASLIALEEHYAWDPASEGNVVATWLRANNGVAYDRLYDRGPLRIEQMDAAGIDFQILSLFDPGVQDEVDAVRAVDLARRANDDLAESVRANPSRFGGFATLATQQPDAAVAEFDRAVTELGLVGGLINGHCQGRYLDDPAYEALFSRAEALGAPIYLHPTTPHPAVMDAWFAPYVGDGLHLASWGFAAETGTHVLRLIYSGLFDKFPRLQMIIGHLGEMLPFAAYRIDRYYGLGGGGTGHTLQHLPSDYLRNNFHVTTSGNFCSPALDCTLDVMGADRVMFSVDYPMDDNQTGADFLASYPMDDTNRRKVASENALRLFGDRIPAALRN
B12: 77 (protein)
chain: MALIDLHAHAPHPGYYNQHPHWGPFFERHEDGDVKLRVGDWILTLGSPERKALVRAGKGPTVEEYQARWADPKVRLAGMDAAGQNAQVVSVPSHCYMYWAEKEFSVPFATKVNDTFAEYCSAAPDRLMFWAHAALNAPEQAALELRRACTELGAKGLVAGGANFGGLEFDSPELDPVWKVLCDLDLPMFIHGYNQSVTWGKKANDDRYETTAIVGMQYDETRCFWNLVCGGVLDRFPGLKVYITHGGGYVPYQLGRLAQCNGNLDVAHNKKPVLEYLKNNFYFDVELHEVPMRQALIDIIGADRVLYGSNFGGSDAVRHDLTEGLRLSDDDLQKIRWKNACKLLHLDPAKIGEPAKKQAVSA
modifications: Burkholderia xenovorans
B13: 73 (protein, listed as Sphaerobacter thermophilus)
chain: MARIDAHAHAQPPEYLDALLASGRYESVRDAEGRIVVRERGSRFLTITPQMHHPEQRVAEMDEAGIDMQILSVTTPQVYFLQGQAAVDLARRCNDYLADIVRSYPTRFRALASVPLTADPDAAVREFVRCLDDLGMVGAIIGSNIDGRPIDDPAFDAFYAEADRRATTLFIHPMVPAGIEVMNPYALAPLVGFMFDTTLAVSRLIFSGFFERYPRVKVLVGHLGAAVPYLAGRLDIGWRSYSDCQGIPHPPTEYIRRLYLDTVSFHAPALRCALETVGPDRIVFGSDYPHVIGDVGGAIASIQQALPATTHDGVLGHTAAELFGVSA

assay: Saturation mutagenesis of SEQ ID NO:109: dicamba decarboxylation activity of point mutants (carbon dioxide released); conditions: decarboxylation activity (carbon dioxide released) of point mutant compared with unmutated backbone protein; backbone SEQ ID NO: 109

Molecule	Fold Activity
B1	0.9
B2	1.9
B3	1.1
B4	1.4
B5	1.4
B6	1.2
B7	1.7
B8	1.4
B9	0.8
B10	1.1
B11	1
B12	1.3
B13	1.2

assay: 14C assay with IPTG-induced recombinant E. coli cells: 14CO2 captured from [14C]-carboxyl-labeled dicamba; conditions: dicamba decarboxylation activity of the protein of the given SEQ ID NO; High / Low / No

Molecule	Enzymatic Detection level
B1	Low
B2	Low
B3	No
B4	Low
B5	Low
B6	Low
B7	Low
B8	Low
B9	Low
B10	Low
B11	Low
B12	No
B13	Low

same assay, conditions: induced recombinant E. coli cells, [14C]-carboxyl-labeled dicamba, 14CO2 capture

Molecule	Dicamba Decarboxylase Activity
B1	Low
B2	Low
B3	No
B4	Low
B5	Low
B6	Low
B7	Low
B8	Low
B9	Low
B10	Low
B11	Low
B12	No
B13	Low
